Assay results published in PMC6549159.

Target: GFP-tagged mDia1ΔN3 (mouse) (UniProt O08808)
Chain of UniProt O08808 (O08808 543-1192, stated change not applied): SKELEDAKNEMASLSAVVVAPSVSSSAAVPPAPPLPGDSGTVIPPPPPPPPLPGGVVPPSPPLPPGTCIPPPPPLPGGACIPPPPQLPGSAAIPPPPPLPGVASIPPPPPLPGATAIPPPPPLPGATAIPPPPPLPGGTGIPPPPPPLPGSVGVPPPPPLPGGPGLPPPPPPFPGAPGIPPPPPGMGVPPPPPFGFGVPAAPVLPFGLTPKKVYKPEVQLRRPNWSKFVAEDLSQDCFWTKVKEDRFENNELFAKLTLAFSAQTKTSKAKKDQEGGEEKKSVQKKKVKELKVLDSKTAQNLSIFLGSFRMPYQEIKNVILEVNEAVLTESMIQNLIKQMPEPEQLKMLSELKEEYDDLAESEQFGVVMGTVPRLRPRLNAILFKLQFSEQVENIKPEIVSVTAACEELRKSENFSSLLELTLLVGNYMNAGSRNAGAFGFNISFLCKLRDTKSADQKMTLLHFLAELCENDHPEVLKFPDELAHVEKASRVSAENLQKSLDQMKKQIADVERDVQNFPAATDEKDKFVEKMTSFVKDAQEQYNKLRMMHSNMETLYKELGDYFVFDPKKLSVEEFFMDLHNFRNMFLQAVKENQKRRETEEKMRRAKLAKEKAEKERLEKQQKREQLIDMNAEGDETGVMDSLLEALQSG

Flag-tagged mouse Phb2 FL (from UniProt O35129 1-299) (natural protein)
frequency of MyoG+ cells (immunofluorescence) in C2C12 myotubes co-expressing Phb2 FL and mDia1ΔN3 (mDia1ΔN3 alone: 15%): 53%
